Tests used:
B16LM3 tumor model = test: Syngeneic B16LM3 tumor model, combination with anti-PD-1 Ab; format: in vivo, C57BL/6 mice; settings: mAb13 15 mg/kg in combination with anti-PD-1 Ab 10 mg/kg i.p., days 1, 5, 8, 12, 15; relative to No Treatment, Isotype Control or anti-PD-1 Ab
Procedure: B16LM3 model was established in female C57BL/6 mice by subcutaneous injection of 0.5×10^6 cells into the right flank of each mouse. The day after implant mice were randomized into treatment groups (n=10 per group). Mice received treatments of either anti-mouse ENTPD2 mAb13 or a non-specific mIgG2a isotype control (clone MOPC-173, BioLegend, San Diego, Calif.) at a final dose 15 mg/kg on Day 1, 5, 8, 12, 15.
Anti-PD-1 Ab (clone RMP1-14 Bio X Cell, West Lebanon, N.H.) or non-specific rIgG2a isotype control (clone RTK2758, BioLegend, San Diego, Calif.) were delivered i.p. at a final dose of 10 mg/kg on days 1, 5, 8, 12, 15. All doses were adjusted to individual mouse body weights.

NIH/3T3 cells = test: Cross reactivity: FACS binding to NIH/3T3 control cells; settings: 50 nM antibody
Procedure: (§1) FACS screening: Specific binding of candidate antibodies to endogenously expressed ENTPD2 was assessed by flow cytometry. Cells were rinsed thoroughly with 1×PBS and treated with Accutase (Millipore #SCR005) to lift from growth plates and resuspended at approximately 1×10^5 cells/90 μL in 1× FACS buffer (2% FBS+0.1% NaN3 in PBS). In a 96-well U-bottom plate, 10 μL of 10× antibody solution in FACS buffer was pre-seeded and 90 μL of cell suspension was added. Cell were incubated for 30 minutes at 4° C., washed 1× with cold PBS and resuspended in 100 μL of 1:500 secondary antibody 1× FACS buffer (Allophycocyanin conjugated F(ab′)2 goat anti-human IgG, Fcγ specific; Jackson Immunoresearch, Cat#109-136-098). After additional incubation for 15 min at 4° C., cells were washed twice with PBS and resuspended in 100 μL of 1×FACS buffer with 4 μg/mL propidium iodide (Life Technologies, Cat#P3566). Geometric mean fluorescence intensity was calculated on live single cells using FlowJo software.
(§2) Cross reactivity Human ENTPD1 (NP_001767) expressing NIH/3T3 cells were generated using a retroviral transduction approach. 72 hrs post transduction, engineered cells were stained with the anti-Human CD39/ENTPD1 APC-conjugated Antibody (R&D systems, Minneapolis, Minn.) and live cells that expressed human ENTPD1 were separated from the rest of the population via fluorescence activated cell sorting. […]

Human ENTPD1 = target: T1, Human ENTPD1 (Homo sapiens, UniProt P49961); test: Cross reactivity: FACS binding to human ENTPD1 expressing NIH/3T3 cells; settings: NIH/3T3-ENTPD1 cells, 50 nM antibody
T1 construct: expressed in transfected cells; host or cells: NIH/3T3 (retroviral transduction, FACS-sorted)
T1 sequence (P49961 1-510): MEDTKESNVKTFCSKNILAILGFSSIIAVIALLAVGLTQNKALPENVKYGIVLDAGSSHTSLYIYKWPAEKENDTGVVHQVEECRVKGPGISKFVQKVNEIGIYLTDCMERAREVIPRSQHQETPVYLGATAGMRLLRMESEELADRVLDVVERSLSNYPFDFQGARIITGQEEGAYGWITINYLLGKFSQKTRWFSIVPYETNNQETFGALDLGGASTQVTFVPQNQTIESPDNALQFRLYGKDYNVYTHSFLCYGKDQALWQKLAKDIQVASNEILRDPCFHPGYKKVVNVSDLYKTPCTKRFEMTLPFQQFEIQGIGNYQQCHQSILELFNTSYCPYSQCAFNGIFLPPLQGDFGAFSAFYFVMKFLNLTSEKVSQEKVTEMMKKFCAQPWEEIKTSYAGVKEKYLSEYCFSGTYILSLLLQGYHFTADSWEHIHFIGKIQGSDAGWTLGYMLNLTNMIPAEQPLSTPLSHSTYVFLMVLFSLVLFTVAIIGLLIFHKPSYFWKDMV
Procedure: as §1, §2

H520 cells = test: Cross reactivity: FACS binding to H520 cells (ENTPD3 and ENTPD8 expression); design: species or system human; settings: 50 nM antibody
Procedure: as §1
H520 cells were identified as a cancer cell line with ENTPD3 (Ct 25) and ENTPD8 (Ct 26) expression by Taqman and were used for selectivity screening.

human ENTPD2 = target: T2, human ENTPD2 (Homo sapiens, UniProt Q9Y5L3); test: Biacore (SPR) affinity to human ENTPD2 ECD; format: binding; settings: 25° C.
T2 construct: residues 29-462 of human or cyno ENTPD2 were cloned into expression vector; GP67 signal peptide (N); made in house; host or cells: High Five (Trichoplusia ni) insect cells, baculovirus
T2 sequence (Q9Y5L3 29-462): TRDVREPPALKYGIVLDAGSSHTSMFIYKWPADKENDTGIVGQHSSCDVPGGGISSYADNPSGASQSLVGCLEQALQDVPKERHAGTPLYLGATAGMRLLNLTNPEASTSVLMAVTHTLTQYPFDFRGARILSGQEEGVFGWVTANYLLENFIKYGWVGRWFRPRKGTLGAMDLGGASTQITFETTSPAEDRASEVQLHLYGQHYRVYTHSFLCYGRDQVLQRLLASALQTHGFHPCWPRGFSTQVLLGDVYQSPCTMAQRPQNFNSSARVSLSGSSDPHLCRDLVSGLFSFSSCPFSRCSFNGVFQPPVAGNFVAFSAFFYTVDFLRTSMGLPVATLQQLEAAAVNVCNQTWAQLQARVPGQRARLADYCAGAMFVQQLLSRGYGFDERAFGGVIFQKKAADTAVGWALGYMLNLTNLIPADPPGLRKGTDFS
Procedure: Biacore Screening: Affinity was measured by determining the kinetic rate constants using surface plasmon resonance (SPR) on a Biacore T200 or T100 with the T200 sensitivity upgrade instrument (Biacore, GE Healthcare). Antibodies were captured on CM5 sensor chips (Biacore, GE Healthcare) prepared with a mouse anti-human IgG Fc antibody (ThermoFisher catalogue #05-4200) amine coupled to the surface. […] ENTPD2 analytes were allowed to associate for 180 s and dissociate for up to 1800 s depending on the off-rate of the antibody at a flow rate of 30 μL/min. The running buffer was PBS pH 7.2 (prepared from a Corning 10X stock, cat#46-013-CM)+0.05% Tween 20. Regeneration was accomplished with 30 s injections of 3 or 4 M MgCl2 to remove all the captured antibody and remaining complex from the surface, after which fresh antibody was captured. The raw data were analyzed using Biacore T200 Evaluation Software version 1.0 and fit to a 1:1 binding model, with all parameters set to fit globally except for RI, which was set to fit locally.

B1: mAb13: anti-mouse ENTPD2 antibody; HC SEQ ID NO: 193, LC SEQ ID NO: 204 (antibody)
heavy: QVQLVQSGAELKQPGQSVKISCKASGYTFTHYGMNWVKQAPGQGLKWMGWINTDTGNPTYADDFKGRFVFSLDTSVSTAYLQISNLKNEDTATYYCVRYGTLYSGYGFFFDSWGQGTLVTVSSAKTTAPSVYPLAPVCGDTTGSSVTLGCLVKGYFPEPVTLTWNSGSLSSGVHTFPAVLQSDLYTLSSSVTVTSSTWPSQSITCNVAHPASSTKVDKKIEPRGPTIKPCPPCKCPAPNLLGGPSVFIFPPKIKDVLMISLSPIVTCVVVDVSEDDPDVQISWFVNNVEVHTAQTQTHREDYNSTLRVVSALPIQHQDWMSGKEFKCKVNNKDLPAPIERTISKPKGSVRAPQVYVLPPPEEEMTKKQVTLTCMVTDFMPEDIYVEWTNNGKTELNYKNTEPVLDSDGSYFMYSKLRVEKKNWVERNSYSCSVVHEGLHNHHTTKSFSRTPGK
light: DIMMTQSPSSLSVSAGEKATITCKSSQSLFNSNTNKNYLNWYLQKPGQSPKLLFYYASTRHTGVPDRFIGSGSGTDFTLTITSVQDEDLADYYCQQWYSYPWTFGPGTKLEIKRADAAPTVSIFPPSSEQLTSGGASVVCFLNNFYPKDINVKWKIDGSERQNGVLNSWTDQDSKDSTYSMSSTLTLTKDEYERHNSYTCEATHKTSTSPIVKSFNRNEC
Q: For B1, which mouse survival (B16LM3 tumor model) is on record?
A: significantly extended mouse survival

B2: mAb7: humanized anti-human ENTPD2 antibody from mAb17; VH SEQ ID NO: 25, VL SEQ ID NO: 78 (antibody, V domains shown)
VH: QVQLVQSGAEVVKPGASVKISCKASGYTFTDYNMDWVKQAPGQRLEWIGDINPKYDISTYNQQFKGKATITVDKSASTAYMELSSLRSEDTAVYYCARRGFFLYYGINYYYFDVWGQGTLVTVSS
VL: EIVLTQSPATLSASPGEEITLSCSASSSVSYIHWYQQKPGQAPRLLIYSTSNLASGIPARFSGSGSGTFYTLTISSVEPEDAAVYYCHQWSSYPWTFGGGTKLEIK
Q: With B2 as the molecule, how does the “Apparent FACS binding at 50 nM” value (NIH/3T3 cells) read?
A: No binding

Q: And the “Apparent FACS binding at 50 nM” value (Human ENTPD1)?
A: No binding

Q: And the “Apparent FACS binding at 50 nM” value (H520 cells)?
A: No binding

Q: What about the Kd (human ENTPD2) of the same molecule?
A: 0.9 nM

Q: What about the ka (human ENTPD2) of the same molecule?
A: 210000 M⁻¹ s⁻¹

Q: What about the kd (human ENTPD2) of the same molecule?
A: 0.00019 s⁻¹
